According to the supplement of paper PMC7125110:
± gives the standard error. Fewer inactive variants are shown than the library holds.

B1: glmS ribozyme (parent)
chain: AUAAAAGCGCCAGAACUACAGAAAUGUAGUUGACGAGGAGGAGGUUUAUCGAAUUUUCGGCGGAUGCCUCCAAA

What was measured:
Settings in all cases: with glucosamine-6-phosphate
glucosamine-6-phosphate [1] = variants of: B1; assay: self-cleavage kobs at 160 uM GlcN6P; higher = faster cleavage; RNA array
Method in brief: (§1)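 Barcoded ribozyme variants were transcribed in situ on sequenced MiSeq chips by E. coli RNA polymerase. At 37 °C, a hybridised Cy3 probe tracked them while glucosamine-6-phosphate (40 μM to 10 mM) in HEPES/KCl/Mg(OAc)2 buffer flowed in and tiles were imaged over ~14 h. Per-tile medians of signals normalised to baseline and to non-cleaving reference variants were fit to one- or two-exponential decays, giving kobs. kcat and KM came from weighted Michaelis–Menten fits across concentrations.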

glucosamine-6-phosphate [2] = variants of: B1; assay: self-cleavage kobs at 640 uM GlcN6P; higher = faster cleavage; RNA array
Method in brief: as §1

glucosamine-6-phosphate [3] = variants of: B1; assay: self-cleavage kobs at 2500 uM GlcN6P; higher = faster cleavage; RNA array
Method in brief: as §1

glucosamine-6-phosphate [4] = variants of: B1; assay: self-cleavage kobs at 10000 uM GlcN6P; higher = faster cleavage; RNA array
Method in brief: as §1

Variant	self-cleavage kobs at 160 uM GlcN6P (glucosamine-6-phosphate [1]) [s⁻¹]	self-cleavage kobs at 640 uM GlcN6P (glucosamine-6-phosphate [2]) [s⁻¹]	self-cleavage kobs at 2500 uM GlcN6P (glucosamine-6-phosphate [3]) [s⁻¹]	self-cleavage kobs at 10000 uM GlcN6P (glucosamine-6-phosphate [4]) [s⁻¹]
AUAAAAGCGCCAGAACUACAGAAAUGUAGUUGACGAGGUGGAGGUUUAUCGAAUUUUCGGUUGAUGCCUCCAAA	< 1e-05	< 1e-05	< 1e-05	–
AUAAAAGCGCCAGAACUACAGAAAUGUAGUUGACGAGGGGGAGGUUUAUCGAAUUUUCGGCGUAUGCCUCCAAA	< 1e-05	< 1e-05	< 1e-05	< 1e-05
AUAAAAGCGCCAGAACUACAGAAAUGUAGUUGACGAGUAGGAGGUUUAUCGAAUUCUCGGCGGAAGCCUCCAAA	< 1e-05	–	< 1e-05	< 1e-05
AUAAAAGCGCCAGAACUACAGAAAUGUAGUUGACGAGGAAGAGGUUUAUCGAAUUUUCGGCGGAUGGCUCCAAA	< 1e-05	< 1e-05	–	–
AUAAAAGCGCCAGAACUACAGAAAUGUAGUUGACGAGGCGUAGGUGUAUCGAAUUUUCGGCGGAUGCCUCCAAA	< 1e-05	–	–	–
AUAAAAGCGCCAGAACUACAGAAAUGUAGUUGACGAGGGGCAGGUGUAUCGAAUUUUCGGCGGUUGCCUCCAAA	< 1e-05	–	–	–
AUAAAAGCGCCAGAACUACAGAAAUGUAGUUGACGAGGGGGUGGUUUAUCGAAUUUUCGGCGGCUGCCUCCAAA	< 1e-05	< 1e-05	< 1e-05	–
AUAAAAGCGCCAGAACUACAGAAAUGUAGUUGACGAGGACGGGGUUUAUCGACUUUUCGGCGGAUGCCUCCAAA	5.62e-05 ± 1.9e-05	0.00018 ± 6.6e-05	0.000564 ± 0.00013	–
AUAAAAGCGCCAGAACUACAGAAAUGUAGUUGACGAGGGGGAGGUUUAUCGAAUUUUCGGCGGACGCCUCCAAA	5.26e-05 ± 2.5e-05	0.000513 ± 0.00015	0.00163 ± 0.0005	–
AUAAAAGCGCCAGAACUACAGAAAUGUAGUUGACGAGAAUGAGGUUUAUCGAAUUUUCGGCGGAUGCCUCCAAA	< 1e-05	< 1e-05	< 1e-05	< 1e-05
AUAAAAGCGCCAGAACUACAGAAAUGUAGUUGACGAGCAGGAGGAUUAUCGAAUUUUCGGCGGAUGCCUCCAAA	< 1e-05	< 1e-05	–	–
AUAAAAGCGCCAGAACUACAGAAAUGUAGUUGACGAGGCGGAGGUUUAUCUAAUUUUCGGCGGAUGCCUCAAAA	< 1e-05	–	–	–
AUAAAAGCGCCAGAACUACAGAAAUGUAGUUGACGAGGUGAAGGUUUAUCGAAUUUUCGGCUGAUGCCUCCAAA	< 1e-05	–	< 1e-05	–
AUAAAAGCGCCAGAACUACAGAAAUGUAGUUGACGAGCAGGAGGUUUAUCGAAUUUUCGGCGGGUGCCUCCAAA	< 1e-05	< 1e-05	–	–
AUAAAAGCGCCAGAACUACAGAAAUGUAGUUGACGAGUAGGAGGUUUAUCGAAUUUUCGGCGGAGGCCUUCAAA	< 1e-05	< 1e-05	–	–
AUAAAAGCGCCAGAACUACAGAAAUGUAGUUGACGAGCAGGAGGUUUAUCGAAUUUUCCGCGGAUGGCUCCAAA	< 1e-05	–	< 1e-05	–
